The source of these data is patent US20140179896A1 (published 2014).

Test [1] addresses T1, human vascular endothelial growth factor receptor-2 Fc chimera (KDR-Fc) (human, UniProt P35968 20-764).
T1 construct: range 1-764; purchased from R&D Systems; also called hKDR; human VEGF-R2-Fc; not shown: human IgG1 Fc
Nature of the test: BIAcore, target-Fc immobilized. As to the method: (§1) The binding kinetics of fibronectin-based scaffold proteins binding proteins to the target was measured using BIAcore 2000 biosensor (Pharmacia Biosensor). Human and mouse VEGF-R2-Fc fusions were immobilized onto a CM5 sensor chip and soluble binding proteins were injected at concentrations ranging from 0 to 100 nM in buffer 0 (10 mM HEPES, 150 mM NaCl, 0.005% Tween 20, pH 7.4). Sensorgrams were obtained at each concentration and were evaluated using a program, BIA Evaluation 2.0 (BIAcore), to determine the rate constants kₐ (kₒₙ) and kd (koff.) The affinity constant, KD was calculated from the ratio of rate constants […].
A general note: Surface plasmon resonance follows binding to a sensor surface in real time, without labels.
T1 sequence (P35968 20-764 limits assumed, change not shown, form in doubt): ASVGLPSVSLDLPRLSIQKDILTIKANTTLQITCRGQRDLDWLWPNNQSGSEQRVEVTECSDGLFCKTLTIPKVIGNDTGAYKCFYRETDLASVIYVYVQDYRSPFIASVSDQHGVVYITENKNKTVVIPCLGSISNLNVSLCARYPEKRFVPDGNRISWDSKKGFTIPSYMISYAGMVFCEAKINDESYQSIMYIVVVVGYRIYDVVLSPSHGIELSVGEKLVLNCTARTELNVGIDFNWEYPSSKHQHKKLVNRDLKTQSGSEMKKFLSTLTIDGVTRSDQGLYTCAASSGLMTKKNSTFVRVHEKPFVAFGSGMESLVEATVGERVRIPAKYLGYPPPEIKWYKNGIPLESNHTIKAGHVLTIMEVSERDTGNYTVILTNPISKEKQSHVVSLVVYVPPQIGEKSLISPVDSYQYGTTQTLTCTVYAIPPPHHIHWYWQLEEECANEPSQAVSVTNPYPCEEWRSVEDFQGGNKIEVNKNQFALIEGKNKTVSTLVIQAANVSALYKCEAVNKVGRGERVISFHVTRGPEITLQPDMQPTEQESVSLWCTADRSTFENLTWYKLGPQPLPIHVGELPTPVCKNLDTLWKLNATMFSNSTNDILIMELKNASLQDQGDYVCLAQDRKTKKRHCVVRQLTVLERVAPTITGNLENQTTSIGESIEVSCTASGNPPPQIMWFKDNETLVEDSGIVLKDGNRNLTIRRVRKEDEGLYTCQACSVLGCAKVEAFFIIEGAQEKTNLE

For test [2], the target named is T2, mouse vascular endothelial growth factor receptor-2 Fc chimera (Flk-1-Fc) (mouse, UniProt P35918 20-762).
T2 construct: purchased from R&D Systems; also called mouse VEGF-R2-Fc; not shown: Fc part of the purchased chimera
Nature of the test: BIAcore, target-Fc immobilized. As to the method:
as §1
T2 sequence (P35918 20-762, change not shown): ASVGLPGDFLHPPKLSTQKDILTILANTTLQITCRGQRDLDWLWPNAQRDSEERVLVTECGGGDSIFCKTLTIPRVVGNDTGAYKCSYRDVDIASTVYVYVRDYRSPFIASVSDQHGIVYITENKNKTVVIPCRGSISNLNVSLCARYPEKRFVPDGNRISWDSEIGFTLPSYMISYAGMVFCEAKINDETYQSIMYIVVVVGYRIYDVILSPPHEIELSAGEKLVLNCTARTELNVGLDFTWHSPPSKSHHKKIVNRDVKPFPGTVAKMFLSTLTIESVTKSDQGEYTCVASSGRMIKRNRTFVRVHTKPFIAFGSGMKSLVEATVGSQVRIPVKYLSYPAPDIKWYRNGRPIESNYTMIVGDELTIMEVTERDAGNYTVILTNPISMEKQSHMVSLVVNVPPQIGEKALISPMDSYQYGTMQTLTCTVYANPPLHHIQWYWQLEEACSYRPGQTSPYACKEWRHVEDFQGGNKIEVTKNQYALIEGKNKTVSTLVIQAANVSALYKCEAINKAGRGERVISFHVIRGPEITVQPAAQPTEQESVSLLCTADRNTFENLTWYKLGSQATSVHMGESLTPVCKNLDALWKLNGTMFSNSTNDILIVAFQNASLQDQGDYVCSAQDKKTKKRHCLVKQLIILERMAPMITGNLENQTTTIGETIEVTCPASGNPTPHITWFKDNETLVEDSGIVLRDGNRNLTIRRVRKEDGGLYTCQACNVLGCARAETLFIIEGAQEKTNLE

The target in test [3] is T1, human vascular endothelial growth …. Nature of the test: radioactive equilibrium binding assay. As to the method: (§2) To prepare ³⁵S-labeled binding proteins for analysis, mRNA was prepared as described above for RNA-protein fusion production but the linker ligation step was omitted. The mRNA was expressed using rabbit reticulocyte lysate translation kit (Ambion) in the presence of ³⁵S-labeled Met at 30° C. for 1 hour. Expressed protein was purified on M2-agarose Flag beads (Sigma) as described above. This procedure produced the encoded protein without the nucleic acid tail. In a direct binding assay, VEGF-R2-Fc fusions in concentrations ranging from 0 to 200 nM were added to a constant concentration of the purified protein (0.2 or 0.5 nM) and incubated at 30° C. for 1 hour in buffer B. The receptor-binder complexes were captured using Protein A magnetic beads for another 10 minutes at room temperature using a Kingfisher™ The beads were washed with six reaction volumes of buffer B. The protein was eluted from the beads with 100 μL of 0.1 M KOH. […] of the reaction mixture and elution were dried onto a LumaPlate-96 (Packard) and the amount of ³⁵S on the plate was measured using a TopCount NXT instrument (Packard). The amount of fibronectin-based scaffold protein bound to the target was estimated as a percent of radioactivity eluted from Protein A magnetic beads compare to radioactivity in the reaction mixture. Nonspecific binding of fibronectin-based scaffold proteins to the beads was determined by measuring binding in the absence of KDR-Fc and represented less than 1-2% of the input. Specific binding was obtained through subtraction of nonspecific binding from total binding. Data was analyzed using the GraphPad Prizm software (GraphPad Software, Inc, San Diego, Calif.), fitted using a one site, non-linear binding equation.

The target in test [4] is T2, mouse vascular endothelial growth …. Nature of the test: radioactive equilibrium binding assay. Here is the method:
as §2

For test [5], the target named is T3, human vascular endothelial growth factor receptor-2 Fc chimera (KDR-Fc) (human, UniProt P35968 20-764).
T3 construct: range 1-764; also called human VEGFR-2; not shown: human IgG1 Fc
Nature of the test: radioactive equilibrium binding assay, KDR-Fc. Here is the method: as §2
T3 sequence (P35968 20-764 limits assumed, change not shown, form in doubt): as the sequence (P35968 20-764 limits assumed, change not shown, form in doubt) above

Test [6] deals with T4, mouse vascular endothelial growth factor receptor-2 Fc chimera (Flk-1-Fc) (mouse, UniProt P35918 20-762).
T4 construct: Bought from R&D Systems; also called mouse VEGFR-2; not shown: Fc part of the purchased chimera, not specified
Briefly: radioactive equilibrium binding assay, Flk-1-Fc. As to the method:
as §2
T4 sequence (P35918 20-762, change not shown): as the sequence (P35918 20-762, change not shown) above

Test [7] has as its target T3, human vascular endothelial growth …. Nature of the test: radioactive equilibrium binding assay, 1 nM KDR-Fc, % of input bound. In outline: (§3)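 Read-out: eluted ³⁵S as % of input radioactivity, minus bead-only binding without KDR-Fc (under 1-2% of input); one-site non-linear fit. Tracer binder 0.2 or 0.5 nM, receptor-Fc 0–200 nM, 1 h at 30° C in buffer B.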
The target in test [8] is T4, mouse vascular endothelial growth …. Nature of the test: radioactive equilibrium binding assay, 1 nM Flk-1-Fc, % of input bound. In outline:
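Receptor-Fc fusions titrated from 0 to 200 nM against a fixed 0.2 or 0.5 nM of ³⁵S-labeled scaffold protein for 1 h at 30° C. Protein A bead pull-down followed by scintillation counting of eluate versus reaction mixture. Specific binding is total minus no-receptor binding, fitted to a one-site nonlinear equation.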

Test [9] has as its target T5, human vascular endothelial growth factor receptor-2 Fc chimera (KDR-Fc) (human, UniProt P35968 20-764).
T5 construct: range 1-764; also called human VEGFR-2; VEGF-R2-Fc; not shown: human IgG1 Fc
Briefly: radioactive equilibrium binding, KDR-Fc. As to the method:
as §2
T5 sequence (P35968 20-764 limits assumed, change not shown, form in doubt): as the sequence (P35968 20-764 limits assumed, change not shown, form in doubt) above

The target of test [10] is T5, human vascular endothelial growth …. Briefly: radioactive equilibrium binding, 1 nM KDR-Fc. In outline: as §3

B1: E6 (designed binder)
chain: EVVAATPTSLLISWRHPHFPTRYYRITYGETGGNSPVQEFTVPLQPPTATISGLKPGVDYTITGYAVTDGWNGRLLSIPISINYRT
notes: Del 1-8 10Fn3 clone; Flag-tagged in vitro translated protein in the radioactive assay, His6-tagged E. coli protein in BIAcore; tags left out
In the case of B1, the Kd in test [1] was 0.08 nM; in test [2] it was 2.02 nM; in test [3] it was below 0.4 nM; in [4] it was 7.1 nM. The koff in [1] came to 6.7e-05 s⁻¹; in test [2] it was 0.00136 s⁻¹. For the same molecule, the kon came to 890000 M⁻¹ s⁻¹ in [1] and 670000 M⁻¹ s⁻¹ in test [2].

B2: E26 (designed binder)
chain: EVVAATPTSLLISWRHPHFPTRYYRITYGETGGNSPVQEFTVPLQPPTATISGLKPGVDYTITGYAVTVERNGRELMTPISINYRT
notes: 10Fn3 clone, Del 1-8
As for B2, the Kd in [5] turned out to be 1.66 nM; in [6], 2.05 nM. Moreover, the “Binding to 1 nM KDR, %” value in test [7] turned out to be 27%. In test [8], the “Binding to 1 nM Flk-1, %” value was determined as 20%.

B3: E6 (designed binder)
chain: EVVAATPTSLLISWRHPHFPTRYYRITYGETGGNSPVQEFTVPLQPPTATISGLKPGVDYTITGYAVTDGWNGRLLSIPISINYRT
notes: 10Fn3 clone, Del 1-8
Regarding B3, the values for the Kd in [5] and in test [6] were 0.35 nM and 7.1 nM, respectively. For the same molecule, the “Binding to 1 nM KDR, %” value in [7] amounted to 36%. For the same molecule, in test [8], the “Binding to 1 nM Flk-1, %” value amounted to 7%.

B4: E25 (designed binder)
chain: EVVAATPTSLLISWRHPHFPTRYYRITYGETGGNSPVQEFTVPLQPPTATISGLKPGVDYTITGYAVTLERNGRELMTPISINYRT
notes: as for B1
For B4, the Kd was 0.21 nM in test [1], 0.76 nM in [2], below 1.6 nM in test [3] and below 1.3 nM in test [4]. Besides, the figures for the koff in test [1] and in [2] were 5.2e-05 s⁻¹ and 0.000378 s⁻¹, respectively. In addition, the kon in [1] is 250000 M⁻¹ s⁻¹; in [2], 500000 M⁻¹ s⁻¹.

B5: K6 (designed binder)
chain: EVVAATPTSLLISWRHPHFPTRYYRITYGETGGNSPVQEFTVPLQPPTATISGLKPGVDYTITGYAVTDGKDGRVLLTPISINYRT
notes: Del 1-8
For B5, the Kd in [9] worked out at 0.93 nM. Besides, in [10], the “Binding to 1 nM KDR, %” value is 27%.

B6: E5 (designed binder)
chain: EVVAATPTSLLISWRHPHFPTRYYRITYGETGGNSPVQEFTVPLQPPTATISGLKPGVDYTITGYAVTDGQNGRLLNVPISINYRT
notes: 10Fn3 clone, Del 1-8
As to B6, the values for the Kd in test [5] and in [6] were 0.4 nM and 3.2 nM, respectively. Moreover, the “Binding to 1 nM KDR, %” value in test [7] turned out to be 26%. The “Binding to 1 nM Flk-1, %” value in test [8] was 10%.

B7: E5 (designed binder)
chain: EVVAATPTSLLISWRHPHFPTRYYRITYGETGGNSPVQEFTVPLQPPTATISGLKPGVDYTITGYAVTDGQNGRLLNVPISINYRT
notes: Del 1-8 10Fn3 clone; Flag-tagged in vitro translated protein in the radioactive assay; tag left out
In the case of B7, the figures for the Kd in test [3] and in [4] were below 0.4 nM and 3.2 nM, respectively.

B8: K7 (designed binder)
chain: EVVAATPTSLLISWRHPHFPTRYYRITYGETGGNSPVQEFTVPLQPPTATISGLKPGVDYTITGYAVTSGHNDHMLMIPISINYRT
notes: Del 1-8
With B8, the Kd in [9] turned out to be 2.2 nM. The “Binding to 1 nM KDR, %” value in [10] was determined as 40%.

B9: K8 (designed binder)
chain: EVVAATPTSLLISWRHPHFPTRYYRITYGETGGNSPVQEFTVPLQPPTATISGLKPGVDYTITGYAVTVTHNGHPLMTPISINYRT
notes: Del 1-8; 279 used
Regarding B9, the Kd in [9] was found to be 3.3 nM. Also, the “Binding to 1 nM KDR, %” value in test [10] turned out to be 18%.

B10: K9 (designed binder)
chain: EVVAATPTSLLISWRHPHFPTRYYRITYGETGGNSPVQEFTVPLQPPTATISGLKPGVDYTITGYAVTFGLYGKELLIPISINYRT
notes: Del 1-8
Consider B10, for which the Kd in test [9] came out at 1.8 nM. Also, in test [10], the “Binding to 1 nM KDR, %” value was 35%.

B11: K13 (designed binder)
chain: EVVAATPTSLLISWRHPHFPTRYYRITYGETGGNSPVQEFTVPLQPPTATISGLKPGVDYTITGYAVTLALKGHELLTPISINYRT
notes: Del 1-8; 246 used
As for B11, in test [9], the Kd was determined as 0.58 nM. The “Binding to 1 nM KDR, %” value in [10] was found to be 17%.

B12: K12 (designed binder)
chain: EVVAATPTSLLISWRHPHFPTRYYRITYGETGGNSPVQEFTVPLQPPTATISGLKPGVDYTITGYAVTDVYNDHEIKTPISINYRT
notes: Del 1-8
Take B12: the Kd in [9] was found to be 0.62 nM. Further, the “Binding to 1 nM KDR, %” value in test [10] came to 29%.

B13: E3 (designed binder)
chain: EVVAATPTSLLISWRHPHFPTRYYRITYGETGGNSPVQEFTVPLQPPTATISGLKPGVDYTITGYAVTDGRNDRKLMVPISINYRT
notes: as for B7
B13: the Kd is below 1 nM in [3] and 5.4 nM in test [4].

B14: K14 (designed binder)
chain: EVVAATPTSLLISWRHPHFPTRYYRITYGETGGNSPVQEFTVPLQPPTATISGLKPGVDYTITGYAVTREENDHELLIPISINYRT
notes: Del 1-8
Take B14: the Kd in test [9] worked out at 0.57 nM. Further, in test [10], the “Binding to 1 nM KDR, %” value was 20%.

B15: K10 (designed binder)
chain: EVVAATPTSLLISWRHPHFPTRYYRITYGETGGNSPVQEFTVPLQPPTATISGLKPGVDYTITGYAVTTGPNDRLLFVPISINYRT
notes: Del 1-8
With B15, in [9], the Kd was determined as 0.57 nM. Moreover, in [10], the “Binding to 1 nM KDR, %” value was found to be 33%.

B16: E9 (designed binder)
chain: EVVAATPTSLLISWRHPHFPTRYYRITYGETGGNSPVQEFTVPLQPPTATISGLKPGVDYTITGYAVTEERNGRTLRTPISINYRT
notes: as for B7
With B16, the values for the Kd in test [3] and in [4] were 2.4 nM and below 1.4 nM, respectively.

B17: K11 (designed binder)
chain: EVVAATPTSLLISWRHPHFPTRYYRITYGETGGNSPVQEFTVPLQPPTATISGLKPGVDYTITGYAVTQAPNDRVLYTPISINYRT
notes: Del 1-8
In the case of B17, in test [9], the dissociation constant Kd amounted to 1.16 nM. The “Binding to 1 nM KDR, %” value in test [10] was 24%.

B18: E3 (designed binder)
chain: EVVAATPTSLLISWRHPHFPTRYYRITYGETGGNSPVQEFTVPLQPPTATISGLKPGVDYTITGYAVTDGRNDRKLMVPISINYRT
notes: 10Fn3 clone, Del 1-8
On to B18, for which the results for the Kd in test [5] and in test [6] were 0.96 nM and 5.4 nM, respectively. Further, in [7], the “Binding to 1 nM KDR, %” value was 37%. Besides, the “Binding to 1 nM Flk-1, %” value in [8] stood at 14%.

B19: E28 (designed binder)
chain: EVVAATPTSLLISWRHPHFPTRYYRITYGETGGNSPVQEFTVPLQPPTATISGLKPGVDYTITGYAVTLERNGRELMVPISINYRT
notes: as for B7
With B19, the Kd in test [3] was below 1.6 nM; in [4], 2.1 nM.

B20: K15 (designed binder)
chain: EVVAATPTSLLISWRHPHFPTRYYRITYGETGGNSPVQEFTVPLQPPTATISGLKPGVDYTITGYAVTEVHHDREIKTPISINYRT
notes: Del 1-8
B20: the Kd in [9] is 0.35 nM. The “Binding to 1 nM KDR, %” value in test [10] amounted to 25%.

The Kd is the free concentration of one partner at which half of the binding sites on the other are occupied at equilibrium, for simple one-to-one binding. In general, koff refers to a measure of how fast the partners let go of each other. In general, kon refers to the rate constant with which the complex forms.
